Molecular target: T1, Fas on Jurkat T cells (human, UniProt P25445 26-335)
T1 sequence (looked up): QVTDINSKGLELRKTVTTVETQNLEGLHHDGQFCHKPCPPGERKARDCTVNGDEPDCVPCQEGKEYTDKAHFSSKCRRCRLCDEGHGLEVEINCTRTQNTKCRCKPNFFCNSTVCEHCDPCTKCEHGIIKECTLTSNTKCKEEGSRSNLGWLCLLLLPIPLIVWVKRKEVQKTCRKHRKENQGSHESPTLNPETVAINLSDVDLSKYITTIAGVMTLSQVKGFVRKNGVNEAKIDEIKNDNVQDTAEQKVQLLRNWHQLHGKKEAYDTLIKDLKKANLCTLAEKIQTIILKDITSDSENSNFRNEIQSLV
Assay: cell-based or functional assay

Binder: SQMHTASSLEKQIGHPSPPPEKKELRKVAHLTGKSN (ligand) [deletion mutant 2 of human FasL]
- percent specific 51Cr release from Jurkat target cells (cytotoxicity assay, transfected COS-7 effector cells): ~2 fold over wild-type FasL

From patent publication US6451759 (University of California, dated 2002)
